Bridge positions count the residues as written; N and C are the ends. * marks the point of attachment. Hexanoyl = CCCCCC(=O)*
T1: Cathepsin F (Homo sapiens (Human)) (UniProt Q9UBX1)
T1 sequence: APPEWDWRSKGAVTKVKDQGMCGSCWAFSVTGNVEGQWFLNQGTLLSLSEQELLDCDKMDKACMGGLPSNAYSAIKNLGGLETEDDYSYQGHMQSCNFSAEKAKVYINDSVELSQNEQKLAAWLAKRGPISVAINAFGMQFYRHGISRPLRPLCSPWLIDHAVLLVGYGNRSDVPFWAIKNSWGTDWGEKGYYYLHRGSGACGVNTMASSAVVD


Assays:
[1] = biological target: human fibroblast activation protein (FAP) on human WI-38 fibroblasts (human); assay: competitive FACS binding on FAP-expressing WI-38 cells against 3 nM Cy5-labeled compound; category A = pIC50 values >8.0; conditions: remark: other sources report otherwise
[2] = biological target: Recombinant human FAP (R&D systems, #3715-SE) (human)
[3] = biological target: KV channel; assay: radioligand displacement, reference compound of the assay (Ki Ref)
[4] = biological target: T1, Cathepsin F (Homo sapiens (Human))

Chain of Recombinant human FAP (R&D systems, #3715-SE) (human) (chain, as listed by the source limits assumed): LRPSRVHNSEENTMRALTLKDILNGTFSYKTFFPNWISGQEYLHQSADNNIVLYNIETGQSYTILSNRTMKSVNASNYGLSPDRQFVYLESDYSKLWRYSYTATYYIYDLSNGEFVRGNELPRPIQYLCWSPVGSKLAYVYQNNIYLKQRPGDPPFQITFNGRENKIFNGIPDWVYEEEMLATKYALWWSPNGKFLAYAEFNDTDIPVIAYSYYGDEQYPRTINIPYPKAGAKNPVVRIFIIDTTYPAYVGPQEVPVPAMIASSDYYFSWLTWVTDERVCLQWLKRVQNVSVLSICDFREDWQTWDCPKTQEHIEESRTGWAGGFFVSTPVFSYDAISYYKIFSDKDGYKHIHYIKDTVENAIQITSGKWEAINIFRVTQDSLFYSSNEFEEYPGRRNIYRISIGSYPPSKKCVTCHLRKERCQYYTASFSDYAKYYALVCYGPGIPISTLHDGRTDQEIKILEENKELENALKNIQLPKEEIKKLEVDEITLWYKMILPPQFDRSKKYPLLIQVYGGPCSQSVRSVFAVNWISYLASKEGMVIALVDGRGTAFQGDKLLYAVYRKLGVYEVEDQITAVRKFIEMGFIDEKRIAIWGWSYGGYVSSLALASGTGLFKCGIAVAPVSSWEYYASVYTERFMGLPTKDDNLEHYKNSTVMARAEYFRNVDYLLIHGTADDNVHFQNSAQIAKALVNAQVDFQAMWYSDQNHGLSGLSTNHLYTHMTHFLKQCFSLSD

Row | Binder | pIC50 Category (FACS) [1] | pIC50 Category (Activity) [2] | other results
1 | CPPTQFC (here or on the partner: N-terminal hexanoyl (Hex); Cys1 and Cys7 cyclised through tMeBn carrying CuDOTA-AET (copper(II) complex); free C-terminal acid (-OH)) [Hex-[Cys-(tMeBn(CuDOTA-AET))-Pro-Pro-Thr-Gln-Phe-Cys]-OH (3BP-4293)] | > 8 pIC50 | – | –
2 | CPPTQFC (here or on the partner: N-terminal hexanoyl (Hex); Cys1 and Cys7 cyclised through tMeBn carrying LuDOTA-AET (lutetium complex); free C-terminal acid (-OH)) [Hex-[Cys(tMeBn(LuDOTA-AET))-Pro-Pro-Thr-Gln-Phe-Cys]-OH (3BP-3624)] | > 8 pIC50 | – | –
3 | CPPTQFCD (N-terminal hexanoyl (Hex); Cys1 and Cys7 cyclised through tMeBn carrying EuDOTA-PP (europium complex); C-terminal amide) [Hex-[Cys(tMeBn(EuDOTA-PP))-Pro-Pro-Thr-Gln-Phe-Cys]-Asp-NH2 (3BP-3661)] | – | > 8 pIC50 | –
4 | CPPTQFCD (N-terminal hexanoyl (Hex); Cys1 and Cys7 cyclised through tMeBn carrying LuDOTA-PP (lutetium complex); C-terminal amide) [Hex-[Cys(tMeBn(LuDOTA-PP))-Pro-Pro-Thr-Gln-Phe-Cys]-Asp-NH2 (3BP-3591)] | – | > 8 pIC50 | –
5 | CPPTQFCD (N-terminal hexanoyl (Hex); Cys1 and Cys7 cyclised through tMeBn carrying InDOTA-PP (indium complex); C-terminal amide) [Hex-[Cys(tMeBn(InDOTA-PP))-Pro-Pro-Thr-Gln-Phe-Cys]-Asp-NH2 (3BP-3590)] | – | > 8 pIC50 | –
6 | Hexanoyl-CPPTQFC-OH (bridge 1-7; not fully specified (bridges); printed as Hex-[Cys-(tMeBn(ZnDOTA-AET))-Pro-Pro-Thr-Gln-Phe-Cys]-OH; also: zinc complex (ZnDOTA) of 3BP-3554) [Hex-[Cys-(tMeBn(ZnDOTA-AET))-Pro-Pro-Thr-Gln-Phe-Cys]-OH (3BP-4343)] | > 8 pIC50 | – | –
7 | alpha -dendrotoxin (protein) QPRRKLCILHRNPGRCYDKIPAFYYNQKKKQCERFDWSGCGGNSNRFKTIEECRRTCIG | – | – | Ki [3]: 0.097 nM
8 | CPPTQFCD (N-terminal hexanoyl (Hex); Cys1 and Cys7 cyclised through tMeBn carrying GaDOTA-PP (gallium complex); C-terminal amide) [Hex-[Cys(tMeBn(GaDOTA-PP))-Pro-Pro-Thr-Gln-Phe-Cys]-Asp-NH2 (3BP-3592)] | – | > 8 pIC50 | –
9 | Cystatin C (protein) SSPGKPPRLVGGPMDASVEEEGVRRALDFAVGEYNKASNDMYHSRALQVVRARKQIVAGVNYFLDVELGRTTCTKTQPNLDNCPFHDQPHLKRKAFCSFQIYAVPWQGTMTLSKSTCQDA | – | – | Percentage inhibition (%), Reference (% inhibition at 1 µM) [4]: 74
10 | CPPTQFC (here or on the partner: N-terminal hexanoyl (Hex); Cys1 and Cys7 cyclised through tMeBn carrying EuDOTA-AET (europium complex); free C-terminal acid (-OH)) [Hex-[Cys(tMeBn(EuDOTA-AET))-Pro-Pro-Thr-Gln-Phe-Cys]-OH (3BP-3662)] | > 8 pIC50 | – | –
11 | CPPTQFC (here or on the partner: N-terminal hexanoyl (Hex); Cys1 and Cys7 cyclised through tMeBn carrying GaDOTA-AET (gallium complex); free C-terminal acid (-OH)) [Hex-[Cys(tMeBn(GaDOTA-AET))-Pro-Pro-Thr-Gln-Phe-Cys]-OH (3BP-3949)] | > 8 pIC50 | – | –
12 | CPPTQFC (here or on the partner: N-terminal hexanoyl (Hex); Cys1 and Cys7 cyclised through tMeBn carrying InDOTA-AET (indium complex); free C-terminal acid (-OH)) [Hex-[Cys(tMeBn(InDOTA-AET))-Pro-Pro-Thr-Gln-Phe-Cys]-OH (3BP-3623)] | > 8 pIC50 | – | –

Reference: patent US12427210B2, “Compounds comprising a fibroblast activation protein ligand and use thereof” (priority 2019, dated 2025)
